Measurements reported in patent US20170173105A1, “AUTOASSEMBLING PEPTIDES FOR THE TREATMENT OF PULMONARY LEAKAGE” (3-D MATRIX, LTD., priority 2014, published 2017).

Legend:
[1] = Rheological properties of peptide solutions and hydrogels after salt ionic strength adjustment; assay type: physicochemical; conditions: for appearance of peptide solutions with salt and pH adjustment: 0.9% NaCl (ionic strength: 0.15 M) at pH 3.4 adjusted with NaOH; for rheological property of hydrogels after DMEM treatment at various ionic strengths: 1% hydrogels, DMEM treatment for 10 min; for rheological property of 1% solutions at various salt ionic strengths: 1% solution, storage modulus at 1 rad/sec; for rheological property of solutions after ionic strength adjustment with NaCl: NaCl to 0.7 M (PuraMatrix®), 0.2 M (KLD12) or 0.02 M (IEIK13), 1% solutions
Method: Based on the visual observation of the effect of salt ionic strength on the properties of the peptide solutions, the effect on the rheological properties of the peptide solutions after adjusting their ionic strength level with NaCl to 0.7 M (PuraMatrix®), 0.2 M (KLD12) or 0.02 M (IEIK13), which is closely below the critical ionic strength at which each peptide becomes cloudy, was evaluated. If the ionic strength levels with NaCl of peptide solutions are higher than 0.9 M (PuraMatrix®), 0.3 M (KLD12) or 0.03 M (IEIK13), the peptide solution begin phase separation becoming cloudy and weak. The rheological property of PuraMatrix®, KLD12 and IEIK13 solutions was higher after adjusting their ionic strength level with NaCl to 0.7 M (PuraMatrix®), 0.2 M (KLD12) or 0.02 M (IEIK13), The results are shown in FIG. 10 for KLD12 1%, FIG. 11 for IEIK13 1%, and FIG. 12 for PuraMatrix® 1%, respectively. Frequency sweep tests were performed from 1 rad/s to 10 rad/s at 1 Pa.
Based on the results of the effect on the rheological properties of the peptide solutions after adjusting their ionic strength level with NaCl to 0.7 M (PuraMatrix®), 0.2 M (KLD12) or 0.02 M (IEIK13), the effect on the rheological properties of the peptide solution at various salt ionic strengths was evaluated. […] The results are shown in FIG. 13 for PuraMatrix® 1% solution and in FIG. 14 for IEIK13 1% solution. Frequency sweep tests were performed from 1 rad/sec to 10 rad/sec at 1 Pa and the storage modulus at 1 rad/sec was selected for data.
Based on the results of the effect on the rheological properties of the peptide solutions after adjusting their ionic strength levels, the effect on the rheological properties of the peptide hydrogels after DMEM treatment for 10 min was evaluated. […] The results are shown in FIG. 15 for PuraMatrix® 1% hydrogels and in FIG. 16 for IEIK13 1% hydrogels, both after DMEM treatment for 10 min Frequency sweep tests were performed from 1 rad/sec to 10 rad/sec at 1 Pa and the storage modulus at 1 rad/sec was selected for data.
Based on the results of the effect on the rheological properties of the peptide solutions and hydrogels after adjusting their ionic strength levels with NaCl, the effect of various salts (KCl, MgCl2, and CaCl2) was also evaluated. The rheological property of PuraMatrix® solutions increases with ionic strength adjustment at 0.15 M of all the salts. Increases of the rheological property of PuraMatrix® solutions with various salts were not predominantly different. However, increases of the rheological property of PuraMatrix® solutions may vary depending on the salting out constant, K of each salt. Constant K is a constant in Cohen's equation: log S=B−KI, where S is solubility, B is idealized solubility, K is salting out constant, and I is ionic strength. With a higher value of constant K and ionic strength of salts, solubility of the peptide may decrease resulting in strong peptide self-assembly with increased hydrophobic effect and higher rheological properties of the peptide solution. The constant K of NaCl may be higher than the other salts. […] The results are shown in FIG. 17 for PuraMatrix® 1% solution before DMEM treatment, and in FIG. 18 for PuraMatrix® 1% hydrogels after DMEM treatment for 10 min.
In accordance with one or more embodiments, IEIK13, KLD12, and PuraMatrix® may be dissolved both in salt buffer such as NaCl and at an elevated pH level adjusted with alkali salt buffer such as NaOH to keep their salt ionic strength under their critical salt points as well as their pH level to about 2.5˜4.0, so that they may have stiffer properties. With respect to PuraMatrix®, […] and IEIK13, the peptide solutions are still clear with 0.9% NaCl (ionic strength: 0.15 M) at pH 3.4 adjusted with NaOH. […] The effect of salt ionic strength and pH adjustment on the rheological properties of PuraMatrix® 2.5% solution are shown in FIG. 20. […]

[2] = Rheological properties of pH adjusted peptide solutions and hydrogels (stress/frequency sweep); assay type: physicochemical; conditions: for rheological property of solutions at various pH levels: PuraMatrix 2.5% solution, IEIK13 1.5% solution; for rheological property of solutions at various pH levels / rheological property of hydrogels after DMEM treatment at various pH: storage modulus at 1 rad/sec; for rheological properties of solutions after pH adjustment: at pH 3.4 (IEIK13 adjusted to 3.7), KLD12 1%, IEIK13 1%, PuraMatrix 1% and 2.5%
Method: Based on the visual observation of the effect of pH level on the properties of the peptide solutions, the effect on the rheological properties of the peptide solutions after adjusting their pH level to 3.4 (PuraMatrix® and KLD12) or 3.7 (IEIK13) was evaluated. If the pH levels of peptide solutions are higher than 3.5 (PuraMatrix® and KLD12) or 3.7 (IEIK13), the peptide solution began phase separation becoming cloudy. The rheological properties of PuraMatrix®, KLD12 and IEIK13 solutions were higher at pH 3.4. The results are shown in FIG. 2 for KLD12 1%, FIG. 3 for IEIK13 1%, and FIGS. 4-5 for PuraMatrix® 1% and 2.5%, respectively. Stress sweep tests were performed at 10 rad/s. Frequency sweep tests were performed at 1 Pa.
Based on the results of the effect on the rheological properties of the peptide solutions after adjusting their pH level to 3.4 (PuraMatrix® and KLD12) or 3.7 (IEIK13), the effect on the rheological properties of the peptide solutions at various pH levels was evaluated. […] The rheological properties of peptides were evaluated at various concentrations using a rheometer (DHR-1, TA Instruments) with 20 mm plates. The results are shown in FIG. 6A for PuraMatrix® 2.5% solution and FIG. 6B for IEIK13 1.5% solution, respectively. Frequency sweep tests were performed from 1 rad/sec to 10 rad/sec at 1 Pa and the storage modulus at 1 rad/sec was selected for data.
Based on the results of the effect on the rheological properties of the peptide solutions after adjusting their pH level, the effect on the rheological properties of the peptide hydrogels at various pH after DMEM treatment was evaluated and compared to the effect on the rheological properties of the peptide solutions at various pH before DMEM treatment. […] The results are shown in FIGS. 7A-7B for PuraMatrix® and FIGS. 8A-8B for IEIK (SEQ ID NO: 5), respectively. Frequency sweep tests were performed from 1 rad/sec to 10 rad/sec at 1 Pa and the storage modulus at 1 rad/sec was selected for data.

| Substance | rheological property of solutions with NaCl compared with KCl and CaCl2 ([1]; 0.15 M ionic strength, 1%) | appearance of peptide solutions with salt and pH adjustment [1] | rheological property of hydrogels after DMEM treatment at various ionic strengths [1] | rheological property of 1% solutions at various salt ionic strengths [1] | rheological property with salt and pH adjustment ([1]; 2.5% solution, 0.9% NaCl (0.15 M) at pH 3.4 vs control and only NaCl 0.9%) | ionic strength level with NaCl at which the peptide solution begins phase separation becoming cloudy and weak [1] | rheological property of solutions after ionic strength adjustment with NaCl [1] | gelation with DMEM treatment ([1]; above 0.9 M of NaCl ionic strength) | rheological property of solutions with various salts ([1]; ionic strength adjustment at 0.15 M of all the salts (NaCl, KCl, MgCl2, CaCl2), 1%) | rheological property of solutions at various pH levels [2] | rheological property of hydrogels after DMEM treatment at various pH [2] | rheological properties of solutions after pH adjustment [2] | pH level at which the peptide solution began phase separation becoming cloudy [2] |
| --- | --- | --- | --- | --- | --- | --- | --- | --- | --- | --- | --- | --- | --- |
| Arg-Ala-Asp-Ala-Arg-Ala-Asp-Ala-Arg-Ala-Asp-Ala-Arg-Ala-Asp-Ala [PuraMatrix ®] | slightly higher | still clear | increased with ionic strength adjustment up to 0.7 M, while decreases above 0.7 M | increases with ionic strength adjustment up to 0.7 M, while decreases above 0.7 M | stiffer | higher than 0.9 M | higher | no gelation | increases | increases with pH adjustment up to 3.4 | increases with pH adjustment up to 3.4 | higher |  |
| Ile-Glu-Ile-Lys-Ile-Glu-Ile-Lys-Ile-Glu-Ile-Lys-Ile [IEIK13] |  | still clear | did not significantly change with ionic strength adjustment up to 0.025 M, while decreases above 0.03 M | increases with ionic strength adjustment up to 0.03 M, while decreases above 0.03 M |  | > 0.03 M | higher |  |  | increases with pH adjustment up to 3.4 | increases with pH adjustment up to 3.4 | higher | > 3.7 |
| Lys-Leu-Asp-Leu-Lys-Leu-Asp-Leu-Lys-Leu-Asp-Leu (Ac-KLDLKLDLKLDL-NH2) [KLD12] |  | still clear |  |  |  | > 0.3 M | higher |  |  |  |  | higher |  |
